Test results as given in the supplement of paper PMC10724198.
± gives the standard deviation of the averaged measurements.

System: Saccharomyces cerevisiae
Experiment: protein stability index of tFT-peptide fusion (C-terminal peptide) (PSI (0-1 scale)); higher = more stable (slower turnover)
Settings: temperature: 30 C
Procedure: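 MPS profiling in S. cerevisiae of the yeast C-terminome library: the last 12 aa of each annotated ORF are fused to the C-terminus of a sfGFP-mCherry timer, after a GGGS linker. Cells are FACS-sorted into 8 mCherry/sfGFP bins and deep-sequenced. PSI runs from 0 (unstable) to 1 (stable); wild type and das1Δ backgrounds, two technical replicates each.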

[1] = genetic background: das1 deletion

Sequence | protein stability index [1] | protein stability index (genetic background: wild type)
YAWTRGLTNPIC [FEX1 C-terminal 12 aa] | 0.69727 ± 0.00064 | 0.69 ± 0.0087
DVEDVLIDTLCN [PEX22 C-terminal 12 aa] | 0.723 ± 0.019 | 0.678 ± 0.03
ELSDLENKLGKK [RCF1 C-terminal 12 aa] | 0.6843 ± 0.0062 | 0.6991 ± 0.0033
AGTLDGRLAIWY [BPH1 C-terminal 12 aa] | 0.6943 ± 0.0032 | 0.686 ± 0.014
VPNDNNEQRSSQ [SAN1 C-terminal 12 aa] | 0.7041 ± 0.0064 | 0.662 ± 0.011
QLQMILFGKKFK [PET9 C-terminal 12 aa] | 0.711 ± 0.016 | 0.701 ± 0.021
YELDGPYMSKRI [ELP3 C-terminal 12 aa] | 0.6788 ± 0.0018 | 0.704 ± 0.062
SNSLPKLKFHSM [OCA6 C-terminal 12 aa] | 0.725 ± 0.044 | 0.681 ± 0.011
FIEMSLASSFAG [MBR1 C-terminal 12 aa] | 0.713 ± 0.009 | 0.704 ± 0.028
ECPSVPPTVRAY [SDH1 C-terminal 12 aa] | 0.528 ± 0.011 | 0.55 ± 0.0063
ELSNNLNVDEFV [LRS4 C-terminal 12 aa] | 0.692 ± 0.0034 | 0.687 ± 0.034
SLQFIGEETSSL [YDL026W C-terminal 12 aa] | 0.708 ± 0.01 | 0.684 ± 0.012
FSLLSFISYFLL [YPS6 C-terminal 12 aa] | 0.665 ± 0.053 | 0.379 ± 0.011
WQDFVPDEHISQ [VPS501 C-terminal 12 aa] | 0.736 ± 0.0053 | 0.792 ± 0.028
SVPKPSQARFSV [UTR1 C-terminal 12 aa] | 0.684 ± 0.025 | 0.703 ± 0.025
ALSKDGIYTIAN [PAU1 C-terminal 12 aa] | 0.711 ± 0.0085 | 0.721 ± 0.017
KQQSWLRRVIGY [ENB1 C-terminal 12 aa] | 0.696 ± 0.015 | 0.688 ± 0.038
IRYSMPYRLASN [YLR264C-A C-terminal 12 aa] | 0.6856 ± 0.0022 | 0.648 ± 0.019
NPWKSQIRDWKN [YBL100W-C C-terminal 12 aa] | 0.704 ± 0.018 | 0.77 ± 0.031
GPEPPRYDEISS [CSR2 C-terminal 12 aa] | 0.705 ± 0.058 | 0.635 ± 0.025
VAAGVFIEHDEL [YOS9 C-terminal 12 aa] | 0.723 ± 0.0098 | 0.702 ± 0.013

Sequence | protein stability index [1] | protein stability index (genetic background: wild type)
DDSSSTDTEERE [SSK2 C-terminal 12 aa] | 0.675 ± 0.028 | 0.683 ± 0.029
GIPNFKLKVTQI [GAB1 C-terminal 12 aa] | 0.6896 ± 0.0036 | 0.706 ± 0.041
TKEAKRRAMKKK [UME6 C-terminal 12 aa] | 0.706 ± 0.028 | 0.677 ± 0.013
LHTLYLRPASAI [SSN8 C-terminal 12 aa] | 0.701 ± 0.021 | 0.669 ± 0.03
RLGNLENIKIPK [AIM4 C-terminal 12 aa] | 0.737 ± 0.0074 | 0.696 ± 0.038
NRLKGQNSHQQR [RGS2 C-terminal 12 aa] | 0.7072 ± 0.0026 | 0.726 ± 0.035
YIARNQKKGMSI [ECT1 C-terminal 12 aa] | 0.685 ± 0.011 | 0.67 ± 0.015
TAFGISSCRDLA [YLR163W-A C-terminal 12 aa] | 0.707 ± 0.016 | 0.6829 ± 0.00097
LADSKHCSGLHK [ASF2 C-terminal 12 aa] | 0.6837 ± 0.0028 | 0.703 ± 0.0086
FVLPTWAAKELN [SPE3 C-terminal 12 aa] | 0.7195 ± 0.0063 | 0.69 ± 0.03
WSTFYYLCRKRE [CRG1 C-terminal 12 aa] | 0.693 ± 0.014 | 0.701 ± 0.077
ILLITGFKSSFT [SRL4 C-terminal 12 aa] | 0.72 ± 0.018 | 0.737 ± 0.038
SFSRIDCCLPDE [TDA5 C-terminal 12 aa] | 0.72 ± 0.013 | 0.707 ± 0.051
KRHLTPAVELDY [PRP40 C-terminal 12 aa] | 0.671 ± 0.008 | 0.6566 ± 0.001
SLSLRNHNSSQL [CLN1 C-terminal 12 aa] | 0.708 ± 0.024 | 0.701 ± 0.017
RHCARVKRSSRL [LYS1 C-terminal 12 aa] | 0.778 ± 0.024 | 0.823 ± 0.046
SGWSAKIPVSMI [YCR045W-A C-terminal 12 aa] | 0.704 ± 0.014 | 0.698 ± 0.0077
KPIETVFDEETV [YIP3 C-terminal 12 aa] | 0.697 ± 0.018 | 0.72 ± 0.041
KKFIYQQLDMFS [YOL024W C-terminal 12 aa] | 0.7181 ± 0.0053 | 0.7 ± 0.024
SVLYAIDFSAAF [EMA35 C-terminal 12 aa] | 0.717 ± 0.012 | 0.703 ± 0.02
